Results: patent US20110239317A1 (Johns Hopkins, published 2011)

T1: mature C-terminal myostatin peptide (disulfide-linked C-terminal dimer), purified from CHO cell conditioned … (UniProt O14793 24-375, limits assumed, radio-iodinated (on tyrosine, residues not stated) in the receptor binding assay)
T1 construct: mature; also called GDF-8; mature C-terminal peptide
T1 sequence (looked up): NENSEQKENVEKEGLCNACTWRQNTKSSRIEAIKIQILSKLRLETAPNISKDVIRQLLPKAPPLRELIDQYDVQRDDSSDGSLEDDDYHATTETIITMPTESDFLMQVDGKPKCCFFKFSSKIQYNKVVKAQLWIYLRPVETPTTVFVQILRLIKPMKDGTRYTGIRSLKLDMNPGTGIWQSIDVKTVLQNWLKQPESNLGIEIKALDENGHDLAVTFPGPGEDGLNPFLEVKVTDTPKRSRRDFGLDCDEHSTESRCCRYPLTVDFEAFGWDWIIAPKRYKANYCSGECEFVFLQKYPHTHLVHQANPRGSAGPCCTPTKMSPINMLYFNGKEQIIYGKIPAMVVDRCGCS

B1: activin type IIB receptor (Act RIIB) expressed on transfected COS cells (receptor)
chain: SGRGEAETRECIYYNANWELERTNQSGLERCEGEQDKRLHCYASWRNSSGTIELVKKGCWLDDFNCYDRQECVATEENPQVYFCCCEGNFCNERFTHLPEAGGPEVTYEPPPTAPTLLTVLAYSLLPIGGLSLIVLLAFWMYRHRKPPYGHVDIHEDPGPPPPSPLVGLKPLQLLEIKARGRFGCVWKAQLMNDFVAVKIFPLQDKQSWQSEREIFSTPGMKHENLLQFIAAEKRGSNLEVELWLITAFHDKGSLTDYLKGNIITWNELCHVAETMSRGLSYLHEDVPWCRGEGHKPSIAHRDFKSKNVLLKSDLTAVLADFGLAVRFEPGKPPGDTHGQVGTRRYMAPEVLEGAINFQRDAFLRIDMYAMGLVLWELVSRCKAADGPVDEYMLPFEEEIGQHPSLEELQEVVVHKKMRPTIKDHWLKHPGLAQLCVTIEECWDHDAEARLSAGCVEERVSLIRRSVNGTTSDCLVSLVTSVTNVDLPPKESSI

Assays:
[1] = biological target: GDF-8 receptor (cell surface binding proteins on L6 and G-8 myoblasts); test: receptor-ligand binding assay with I-125 GDF-8 on myoblasts
[2] = biological target: GDF-8 receptor (cell surface binding proteins on L6 and G-8 myoblasts); test: receptor-ligand binding assay with I-125 GDF-8 on L6 myoblasts
[3] = biological target: T1, mature C-terminal myostatin peptide …; test: radio-iodinated myostatin on COS cells transfected with Act RIIB, Scatchard analysis

Molecule | Kd [1] [nM] | receptors/cell (receptors/cell) [2] | Kd [3] [nM]
recombinant human GDF-8 (rhGDF-8) homodimer (from UniProt O14793 267-374) (ligand) | 0.37 | 5000 | –
B1 | – | – | ~5
